Key:
[1] = target: T1, GFP-G3BP1-H31YH62Y (UniProt Q13283 1-466, H31Y | H62Y); assay: co-IP; GFP-Trap/anti-GFP beads from lysates of U2OS ΔΔG3BP1/2 cells stably expressing GFP-G3BP1-WT or mutants; EE lysis buffer; Western blot for Caprin-1 and USP10; details: partners not purified
T1 construct: G3BP1, full length, fused to GFP; source: U2OS ΔΔG3BP1/2 cells, stably transfected, in lysate

[2] = target: T2, G3BP1-NTF2 (residues 1–139) (UniProt Q13283 1-139); assay: nanoDSF (thermal shift); G3BP1-NTF2 with 10 x molar excess of peptide, 4% DMSO; 25 mM MES pH 6.1, 150 mM NaCl, 10 mM MgCl2, 10% glycerol; details: both partners purified
T2 construct: G3BP1, NTF2-like domain, residues 1–139; Purified as a dimer; also called G3BP1-NTF2-WT; NTF2-WT; source: E. coli, purified (IMAC, Superdex 75 SEC, TEV cleavage, IMAC flow-through, SEC)

[3] = target: T3, NTF2-H31YH62Y (UniProt Q13283 1-139, H31Y | H62Y); assay: as above; details: both partners purified
T3 construct: G3BP1 NTF2-like domain (limits as the G3BP1-NTF2 construct, residues 1–139) with H31Y and H62Y; also called G3BP1-NTF2-H31YH62Y

[4] = target: T2, G3BP1-NTF2 (residues 1–139); assay: nanoDSF (thermal shift); G3BP1-NTF2 with 10 x molar excess of peptide, 4% DMSO; neutral pH (7.4); buffers as for ITC; details: both partners purified
[5] = target: T2, G3BP1-NTF2 (residues 1–139); assay: nanoDSF (thermal shift); G3BP1-NTF2 with 10 x molar excess of peptide, 4% DMSO; 25 mM Na-acetate pH 5.1, 150 mM NaCl, 10 mM MgCl2, 10% glycerol; details: both partners purified

T2 sequence (Q13283 1-139): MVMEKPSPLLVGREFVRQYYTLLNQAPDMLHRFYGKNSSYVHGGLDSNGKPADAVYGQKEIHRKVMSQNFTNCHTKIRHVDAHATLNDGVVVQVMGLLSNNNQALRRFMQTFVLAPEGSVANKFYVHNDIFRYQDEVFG
T3 sequence (Q13283 1-139 H31Y/H62Y): as the sequence (Q13283 1-139) above, with H31Y, H62Y counted along it
T1 sequence (Q13283 whole entry H31Y/H62Y, the tested form may be a part): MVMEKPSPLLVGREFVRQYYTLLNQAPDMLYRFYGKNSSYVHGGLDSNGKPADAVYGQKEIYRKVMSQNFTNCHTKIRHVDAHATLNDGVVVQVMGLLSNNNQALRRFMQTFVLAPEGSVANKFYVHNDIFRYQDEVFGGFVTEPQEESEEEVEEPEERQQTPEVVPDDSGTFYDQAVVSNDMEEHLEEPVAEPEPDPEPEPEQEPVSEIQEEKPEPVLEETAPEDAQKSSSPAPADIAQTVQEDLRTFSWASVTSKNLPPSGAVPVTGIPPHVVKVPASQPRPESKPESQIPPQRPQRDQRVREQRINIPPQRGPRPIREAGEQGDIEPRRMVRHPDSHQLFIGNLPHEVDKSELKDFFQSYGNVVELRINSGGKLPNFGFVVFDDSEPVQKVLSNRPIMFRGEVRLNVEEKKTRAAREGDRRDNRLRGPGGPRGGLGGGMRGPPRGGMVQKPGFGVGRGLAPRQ

reduction of co-precipitated Caprin-1 relative to wild-type G3BP1 [1]	binding result [3]	Binder	ΔTm (ligand-binding-induced stabilization of NTF2) [2]	ΔTm (ligand-binding-induced stabilization of NTF2) [4]	ΔTm (ligand-binding-induced stabilization of NTF2) [5]
~50%	–	Caprin-1, endogenous in U2OS ΔΔG3BP1/2 cells (natural protein, human (endogenous in U2OS), UniProt Q14444 1-709, looked up, Caprin-1, endogenous protein detected by Western blot; source: endogenous, U2OS ΔΔG3BP1/2 lysate) MPSATSHSGSGSKSSGPPPPSGSSGSEAAAGAGAAAPASQHPATGTGAVQTEAMKQILGVIDKKLRNLEKKKGKLDDYQERMNKGERLNQDQLDAVSKYQEVTNNLEFAKELQRSFMALSQDIQKTIKKTARREQLMREEAEQKRLKTVLELQYVLDKLGDDEVRTDLKQGLNGVPILSEEELSLLDEFYKLVDPERDMSLRLNEQYEHASIHLWDLLEGKEKPVCGTTYKVLKEIVERVFQSNYFDSTHNHQNGLCEEEEAASAPAVEDQVPEAEPEPAEEYTEQSEVESTEYVNRQFMAETQFTSGEKEQVDEWTVETVEVVNSLQQQPQAASPSVPEPHSLTPVAQADPLVRRQRVQDLMAQMQGPYNFIQDSMLDFENQTLDPAIVSAQPMNPTQNMDMPQLVCPPVHSESRLAQPNQVPVQPEATQVPLVSSTSEGYTASQPLYQPSHATEQRPQKEPIDQIQATISLNTDQTTASSSLPAASQPQVFQAGTSKPLHSSGINVNAAPFQSMQTVFNMNAPVPPVNEPETLKQQNQYQASYNQSFSSQPHQVEQTELQQEQLQTVVGTYHGSPDQSHQVTGNHQQPPQQNTGFPRSNQPYYNSRGVSRGGSRGARGLMNGYRGPANGFRGGYDGYRPSFSNTPNSGYTQSQFSAPRDYSGYQRDGYQQNFKRGSGQSGPRGAPRGRGGPPRPNRGMPQMNTQQVN	–	–	–
–	binds	RQRVQDLMAQMQGPYNFIQDSMLDFENQTLD (Used for co-crystallisation and as peptide ligand in nanoDSF; also called Caprin-1-derived SLiM; source: synthetic peptide) [Caprin-1^356–386 peptide]	2.5 °C	3 °C	5.5 °C

Source: publication PMC10170197 (Open Biology, 2023)
